These results are taken from article PMC7418704 (2020).

The target in the assay is Monomeric human ACE2 (19-615), Fc tag removed by thrombin (human, UniProt Q9BYF1 19-615). Kind of assay: BLI. For orientation: Biolayer interferometry detects binding as a change in optical thickness at a sensor tip.

The term Kd denotes the free concentration of one partner at which half of the binding sites on the other are occupied at equilibrium, for simple one-to-one binding. Higher therefore signals lower affinity.

Monomeric human ACE2 (19-615), Fc tag removed by thrombin, sequence (Q9BYF1 19-615): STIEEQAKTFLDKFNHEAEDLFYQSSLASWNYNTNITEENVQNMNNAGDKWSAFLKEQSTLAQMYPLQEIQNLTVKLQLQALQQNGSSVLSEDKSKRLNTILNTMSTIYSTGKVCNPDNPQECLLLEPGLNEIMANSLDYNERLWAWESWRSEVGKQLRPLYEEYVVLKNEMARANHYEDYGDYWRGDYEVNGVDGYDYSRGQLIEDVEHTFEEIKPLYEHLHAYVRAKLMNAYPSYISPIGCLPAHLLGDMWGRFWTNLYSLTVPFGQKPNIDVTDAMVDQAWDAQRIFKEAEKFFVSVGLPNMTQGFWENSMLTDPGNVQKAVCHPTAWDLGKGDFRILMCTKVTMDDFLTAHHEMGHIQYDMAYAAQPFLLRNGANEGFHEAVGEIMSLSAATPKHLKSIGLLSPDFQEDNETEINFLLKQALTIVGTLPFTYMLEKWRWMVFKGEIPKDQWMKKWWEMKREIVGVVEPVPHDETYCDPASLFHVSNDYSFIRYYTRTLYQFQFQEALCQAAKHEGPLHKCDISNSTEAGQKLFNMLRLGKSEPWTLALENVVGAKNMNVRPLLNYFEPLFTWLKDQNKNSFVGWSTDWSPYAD

B1: SARS-CoV-1 RBD (306-575), mammalian-expressed, purified (domain or fragment)
chain: not shown
As for B1, the equilibrium dissociation constant (Kd) was found to be 575 nM.
